Measured values published in patent US20240352090A1, “USE OF PROTEIN SEQUENCE CAPABLE OF BINDING TO SUBSTRATE IN PREPARATION OF PRODUCT FOR INHIBITING FIBRIN ASSEMBLY” (NANJING UNIVERSITY, priority 2021, published 2024).

T1: fibrin (Homo sapiens, UniProt P02671)
T1 construct: Thrombin cleaves the α and γ subunits of fibrin, exposing fibrinopeptide A (Knob A) and fibrinopeptide B (Knob B)
T1 sequence (P02671 36-866 limits assumed): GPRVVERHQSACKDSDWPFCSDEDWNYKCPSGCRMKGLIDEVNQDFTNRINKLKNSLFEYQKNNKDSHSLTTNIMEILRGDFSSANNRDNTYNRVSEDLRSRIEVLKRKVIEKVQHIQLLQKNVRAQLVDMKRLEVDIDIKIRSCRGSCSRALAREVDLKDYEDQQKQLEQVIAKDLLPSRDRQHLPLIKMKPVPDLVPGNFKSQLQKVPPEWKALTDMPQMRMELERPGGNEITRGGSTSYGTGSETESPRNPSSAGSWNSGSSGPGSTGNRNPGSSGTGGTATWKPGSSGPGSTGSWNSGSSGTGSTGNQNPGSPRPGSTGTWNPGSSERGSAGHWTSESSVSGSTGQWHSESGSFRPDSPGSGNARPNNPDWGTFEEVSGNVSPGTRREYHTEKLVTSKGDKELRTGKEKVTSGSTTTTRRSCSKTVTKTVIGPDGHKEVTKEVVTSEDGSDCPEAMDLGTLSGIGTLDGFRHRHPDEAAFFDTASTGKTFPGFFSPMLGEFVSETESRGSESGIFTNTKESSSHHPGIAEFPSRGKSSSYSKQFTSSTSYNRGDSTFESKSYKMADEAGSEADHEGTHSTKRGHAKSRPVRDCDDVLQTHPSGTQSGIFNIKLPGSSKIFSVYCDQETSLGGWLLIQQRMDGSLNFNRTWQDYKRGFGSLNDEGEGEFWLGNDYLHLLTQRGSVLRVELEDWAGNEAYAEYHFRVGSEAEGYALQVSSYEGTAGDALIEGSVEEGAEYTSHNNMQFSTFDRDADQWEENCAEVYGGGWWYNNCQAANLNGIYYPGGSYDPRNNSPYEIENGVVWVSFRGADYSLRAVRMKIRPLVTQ
T1 sequence (P02675 45-491 partner limits assumed): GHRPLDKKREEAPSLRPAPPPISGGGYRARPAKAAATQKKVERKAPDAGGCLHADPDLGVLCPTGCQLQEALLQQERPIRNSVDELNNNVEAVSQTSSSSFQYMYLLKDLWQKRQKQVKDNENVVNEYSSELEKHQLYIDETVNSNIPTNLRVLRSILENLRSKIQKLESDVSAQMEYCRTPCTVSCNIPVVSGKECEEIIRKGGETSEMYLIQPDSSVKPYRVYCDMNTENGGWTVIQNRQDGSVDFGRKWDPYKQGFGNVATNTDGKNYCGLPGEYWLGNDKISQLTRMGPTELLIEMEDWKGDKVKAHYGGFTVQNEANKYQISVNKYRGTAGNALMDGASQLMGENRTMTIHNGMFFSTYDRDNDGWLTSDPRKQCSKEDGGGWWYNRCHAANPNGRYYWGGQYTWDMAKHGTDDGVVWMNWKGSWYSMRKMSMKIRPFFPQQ
T1 sequence (P02679 27-453 partner): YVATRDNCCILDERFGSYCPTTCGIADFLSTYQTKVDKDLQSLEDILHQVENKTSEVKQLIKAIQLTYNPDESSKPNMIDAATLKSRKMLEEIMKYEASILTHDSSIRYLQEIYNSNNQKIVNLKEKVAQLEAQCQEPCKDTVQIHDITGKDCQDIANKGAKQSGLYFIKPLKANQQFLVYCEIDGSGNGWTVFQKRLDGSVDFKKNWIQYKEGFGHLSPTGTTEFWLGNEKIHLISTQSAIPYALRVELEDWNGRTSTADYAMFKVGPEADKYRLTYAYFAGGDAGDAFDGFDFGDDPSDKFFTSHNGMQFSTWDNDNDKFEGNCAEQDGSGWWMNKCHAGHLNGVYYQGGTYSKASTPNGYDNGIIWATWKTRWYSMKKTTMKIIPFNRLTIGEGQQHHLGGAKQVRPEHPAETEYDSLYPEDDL

T2: fibrin aggregates (Homo sapiens, UniProt P02671)
T2 construct: Thrombin cleaves the α and γ subunits of fibrin, exposing fibrinopeptide A (Knob A) and fibrinopeptide B (Knob B)
T2 sequence (P02671 36-866 limits assumed): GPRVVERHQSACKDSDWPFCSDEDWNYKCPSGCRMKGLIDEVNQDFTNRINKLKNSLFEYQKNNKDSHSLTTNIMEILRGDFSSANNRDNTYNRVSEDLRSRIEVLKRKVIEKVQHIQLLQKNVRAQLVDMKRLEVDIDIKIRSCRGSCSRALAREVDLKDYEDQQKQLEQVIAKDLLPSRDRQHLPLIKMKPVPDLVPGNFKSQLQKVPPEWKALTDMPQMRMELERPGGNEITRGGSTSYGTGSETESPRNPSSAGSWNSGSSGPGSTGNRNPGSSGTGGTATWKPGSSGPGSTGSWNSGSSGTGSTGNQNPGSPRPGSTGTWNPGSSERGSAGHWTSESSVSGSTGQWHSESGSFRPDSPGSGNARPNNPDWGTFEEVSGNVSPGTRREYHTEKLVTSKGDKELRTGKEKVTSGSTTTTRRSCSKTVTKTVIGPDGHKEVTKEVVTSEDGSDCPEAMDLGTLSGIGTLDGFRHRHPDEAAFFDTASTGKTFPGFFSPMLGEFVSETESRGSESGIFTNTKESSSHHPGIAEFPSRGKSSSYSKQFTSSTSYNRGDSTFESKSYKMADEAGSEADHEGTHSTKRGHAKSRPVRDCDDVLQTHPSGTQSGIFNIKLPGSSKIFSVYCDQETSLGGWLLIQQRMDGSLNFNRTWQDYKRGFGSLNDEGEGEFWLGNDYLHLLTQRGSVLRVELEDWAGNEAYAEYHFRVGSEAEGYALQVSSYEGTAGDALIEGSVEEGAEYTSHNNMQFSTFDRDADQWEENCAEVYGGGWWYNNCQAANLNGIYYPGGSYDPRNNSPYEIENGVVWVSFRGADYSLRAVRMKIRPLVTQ
T2 sequence (P02675 45-491 partner limits assumed): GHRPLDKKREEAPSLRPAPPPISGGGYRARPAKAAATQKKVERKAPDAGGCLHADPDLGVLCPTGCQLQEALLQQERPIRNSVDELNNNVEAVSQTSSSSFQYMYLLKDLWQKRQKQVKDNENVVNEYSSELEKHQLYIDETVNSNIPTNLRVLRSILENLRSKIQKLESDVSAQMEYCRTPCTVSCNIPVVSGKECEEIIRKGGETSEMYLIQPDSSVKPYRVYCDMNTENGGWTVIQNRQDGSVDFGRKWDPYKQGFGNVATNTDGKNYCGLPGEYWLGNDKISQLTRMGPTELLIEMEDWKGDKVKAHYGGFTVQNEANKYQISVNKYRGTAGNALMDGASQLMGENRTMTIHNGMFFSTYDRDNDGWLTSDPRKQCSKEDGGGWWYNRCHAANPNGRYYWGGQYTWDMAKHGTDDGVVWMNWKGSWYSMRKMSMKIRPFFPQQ
T2 sequence (P02679 27-453 partner): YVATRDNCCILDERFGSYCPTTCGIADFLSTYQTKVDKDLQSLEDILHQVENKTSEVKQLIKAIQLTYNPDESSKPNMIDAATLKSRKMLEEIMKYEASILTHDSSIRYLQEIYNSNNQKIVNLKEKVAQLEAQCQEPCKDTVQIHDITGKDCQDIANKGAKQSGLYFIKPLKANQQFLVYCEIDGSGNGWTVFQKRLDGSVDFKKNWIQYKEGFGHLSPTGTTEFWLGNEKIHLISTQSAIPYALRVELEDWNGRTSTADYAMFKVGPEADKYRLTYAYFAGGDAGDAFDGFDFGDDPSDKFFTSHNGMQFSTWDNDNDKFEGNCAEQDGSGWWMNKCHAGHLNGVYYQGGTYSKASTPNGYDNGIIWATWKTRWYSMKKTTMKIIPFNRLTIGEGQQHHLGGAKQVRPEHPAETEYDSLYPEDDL


How the values were obtained:
fibrin [1] = molecular target: T1, fibrin; assay: fibrin aggregation, light scattering / A350 kinetic curve; assay type: biochemical; conditions: 3.3 μM Fibrinogen, 2.5 U/ml thrombin, ±5 mM CaCl2, 25° C., different doses
Experimental: Multifunctional enzyme marker M200PRO detected the light scattering process, and the instrument excitation light was adjusted to 350 nm and emission light to 350 nm. 3.3 μM of Fibrinogen in the control group, 3.3 μM of Fibrinogen and 2.5 U/ml of thrombin in the model group and 3.3 μM of Fibrinogen and 2.5 U/ml thrombin and different dose of Fibrinogen related protein 1 (FGL1). All the above systems were in 20 mM Tris-HCl, pH 7.4, 150 mM NaCl±5 mM CaCl2 solution in a 100 μl/well (96-well plate). The kinetic curve was measured by assaying every minute at 25° C.
Multifunctional enzyme marker M200PRO detected the light scattering process; the instrument excitation light was adjusted to 350 nm, and the emission light was adjusted to 350 nm. 3.3 μM of Fibrinogen in the control group, 3.3 μM of Fibrinogen and 2.5 U/ml of thrombin in the model group, and 3.3 μM of Fibrinogen and 2.5 U/ml thrombin and different dose of fibrinogen structural domain (FD). The above systems were in 20 mM Tris-HCl, pH 7.4, 150 mM NaCl±5 mM CaCl2 solution. The kinetic curves were measured at 25° C. by detecting the A350 absorption values every minute.

[2] = tested on: thrombin-induced thrombosis model; assay: thrombin-induced thrombosis model, plasmid injection and overexpression; assay type: in vivo, BALB/c mice; conditions: expression plasmid 100 μg per mouse tail vein, overexpression; thrombin 15 U per mouse; deaths within 1 hour
Experimental: Construct FGL1 expression plasmid with pcDNA3.1 vector, inject the plasmid into the tail vein of mice, 100 μg/2 ml PBS/per mouse, extract the plasma of the mice after 18 hours, and detect the overexpressed FGL1 content in the plasma by ELISA;
Thrombin 15 U/200 μl PBS/per mouse was injected into the tail vein for modelling, and the number of mice in each group that died within 1 hour after injection was recorded to calculate the protection rate of Fibrinogen like protein 1 (FGL1) overexpression.
The specific operation methods were the same as those described previously for the protective effects of overexpression of FGL1.

fibrin aggregates [3] = molecular target: T2, fibrin aggregates; assay: synergistic dissolving of fibrin aggregates with tissue plasminogen activator tPA; assay type: biochemical; conditions: 2 nM tPA plus different doses, added after 1 h of fibrin formation
Experimental: The Multifunctional enzyme marker M200PRO detected the light scattering process, and the excitation light of the instrument was adjusted to 350 nm and the emission light to 350 nm. 3.3 μM of Fibrinogen in the control group, 3.3 μM of Fibrinogen and 2.5 U/ml of thrombin in the model group. The above systems were all set up in 20 mM Tris-HCl, pH 7.4, 150 mM NaCl ±[…] CaCl2 solution in a 100 μl/well (96-well plate). After 1 h of gel-like fibrin formation, 100 μl, 2 nM tissue plasminogen activator tPA and different doses of Fibrinogen like protein 1 (FGL1) were added. Kinetic curves were measured at 25° C. by detecting A350 absorption values every minute.
The control group was a reagent control, and the administered groups were 2 nM tissue plasminogen activator tPA, different doses of Fibrinogen like protein 1 (FGL1) alone groups, and groups in combination with other reagents. Kinetic curves were measured at 37° C. using a multifunctional enzyme marker M200PRO to detect the absorption values of the 510 nm excitation light every minute.
The Multifunctional enzyme marker M200PRO detected the light scattering process, and the excitation light of the instrument was adjusted to 350 nm and the emission light to 350 nm. […] Kinetic curves were measured at 25° C. by detecting A350 absorption values every minute. […]

fibrin aggregates [4] = molecular target: T2, fibrin aggregates; assay: synergistic dissolving of fibrin aggregates with urokinase uPA; assay type: biochemical
fibrin [5] = molecular target: T1, fibrin; assay: fibrin aggregation observed by scanning electron microscopy; assay type: biochemical; conditions: FIG. 12
mouse thrombus = mouse thrombus morphology observed by scanning electron microscopy; assay type: in vivo, mice; conditions: FIG. 14
aggregated fibrin = assay: cleavage of aggregated fibrin; assay type: biochemical; conditions: FIG. 27
From the text: Mutation of certain key sites in this protein's amino acid sequence can also enhance its function of inhibiting thrombosis.

Molecule	effect on fibrin aggregation (fibrin [1])	survival rate of mice [2]	dissolving fibrin aggregates together with tPA (fibrin aggregates [3])	dissolving fibrin aggregates together with urokinase uPA (fibrin aggregates [4]; 800 U/ml uPA plus different doses of FGL1)	structure of thrombus formed by fibrin aggregation (fibrin [5])	morphology of mouse thrombus (mouse thrombus)	dissolving fibrin aggregates together with urokinase uPA (fibrin aggregates [4]; 2800 U/ml uPA plus different doses of FD (800 U/ml in thrombus lysis))	cleavage of aggregated fibrin, mutant compared to unmutated form (aggregated fibrin)
FGL1: Fibrinogen like protein 1, amino acid sequence SEQ ID No. 1, expressed in eukaryotic cells; given as pcDNA3.1 expression plasmid in Example 6	inhibits fibrin aggregation	significantly increasing the survival rate of mice	synergistically dissolving fibrin aggregates	synergistically dissolving fibrin aggregates				
FD: Fibrinogen structural domain protein of FGL1, positions 48-290 of SEQ ID No. 1 (SEQ ID No. 3) (protein) TVIDLGSKRQYADCSEIFNDGYKLSGFYKIKPLQSPAEFSVYCDMSDGGGWTVIQRRSDGSENFNRGWKDYENGFGNFVQKHGEYWLGNKNLHFLTTQEDYTLKIDLADFEKNSRYAQYKNFKVGDEKNFYELNIGEYSGTAGDSLAGNFHPEVQWWASHQRMKFSTWDRDHDNYEGNCAEEDQSGWWFNRCHSANLNGVYYSGPYTAKTDNGIVWYTWHGWWYSLKSVVMKIRPNDFIPNVI	inhibits fibrin aggregation	significant improvement of survival rate in mice	synergistically dissolving fibrin aggregates		becomes thinner and looser in structure	becomes thinner and looser in structure	synergistically dissolving fibrin aggregates	
FD mutant: FD with tryptophan at key positions 204 and 269 mutated to alanine (protein) TVIDLGSKRQYADCSEIFNDGYKLSGFYKIKPLQSPAEFSVYCDMSDGGGWTVIQRRSDGSENFNRGWKDYENGFGNFVQKHGEYWLGNKNLHFLTTQEDYTLKIDLADFEKNSRYAQYKNFKVGDEKNFYELNIGEYSGTAGDSLAGNFHPEVQWAASHQRMKFSTWDRDHDNYEGNCAEEDQSGWWFNRCHSANLNGVYYSGPYTAKTDNGIVWYTWHGAWYSLKSVVMKIRPNDFIPNVI								significantly enhanced
